Common to all, as to details: protein: recombinant; tags: N-terminal GST; label: 5'-6-FAM; hairpin with two bulges
Data set [1] has as its target T1, R785E (Drosophila melanogaster, UniProt Q9W1K4 512-819, R785E).
T1 sequence: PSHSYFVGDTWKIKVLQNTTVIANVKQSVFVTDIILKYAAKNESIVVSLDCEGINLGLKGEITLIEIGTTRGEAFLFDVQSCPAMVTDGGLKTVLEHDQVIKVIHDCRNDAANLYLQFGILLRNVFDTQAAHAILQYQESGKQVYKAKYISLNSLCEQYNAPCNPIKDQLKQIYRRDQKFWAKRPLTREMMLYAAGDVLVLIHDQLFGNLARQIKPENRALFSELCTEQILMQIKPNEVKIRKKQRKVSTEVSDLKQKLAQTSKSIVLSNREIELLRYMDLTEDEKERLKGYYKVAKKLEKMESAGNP
Kind of data set: fluorescence anisotropy; FA: 20 mM HEPES-NaOH pH 7.5, 100 mM NaCl, 10% glycerol, 20 C, 10 nM FAM-RNA; competition: 150 nM Egl512-819 + 10 nM FAM-K10 TLS, same buffer. For orientation: Fluorescence polarisation rises when a labelled molecule tumbles more slowly, as on binding a larger partner.

Data set [2] addresses T2, K659E/K754E (Drosophila melanogaster, UniProt Q9W1K4 512-819, K659E;K754E).
T2 sequence: T1 sequence with K148E, K243E, E274R
Described as above.

The target in data set [3] is T3, R753E (Drosophila melanogaster, UniProt Q9W1K4 512-819, R753E).
T3 sequence: T1 sequence with R242E, E274R
The data set is described as above.

For data set [4], the target named is T4, Egl512-1004 (Drosophila melanogaster, UniProt Q9W1K4 512-1004).
T4 sequence: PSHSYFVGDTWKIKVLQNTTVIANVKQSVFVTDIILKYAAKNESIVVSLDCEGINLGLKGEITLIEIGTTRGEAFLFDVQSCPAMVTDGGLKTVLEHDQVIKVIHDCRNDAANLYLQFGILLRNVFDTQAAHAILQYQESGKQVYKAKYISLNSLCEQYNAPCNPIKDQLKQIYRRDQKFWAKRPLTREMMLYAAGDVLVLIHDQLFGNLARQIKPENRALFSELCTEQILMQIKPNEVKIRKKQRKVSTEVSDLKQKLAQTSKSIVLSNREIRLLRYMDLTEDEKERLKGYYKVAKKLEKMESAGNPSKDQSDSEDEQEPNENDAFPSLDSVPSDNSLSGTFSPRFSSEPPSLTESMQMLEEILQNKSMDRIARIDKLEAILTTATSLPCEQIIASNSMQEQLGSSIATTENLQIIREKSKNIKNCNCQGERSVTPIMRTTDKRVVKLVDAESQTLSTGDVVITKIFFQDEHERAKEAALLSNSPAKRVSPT
Described as above.

Data set [5] has as its target T5, K659E/K754E/R788E (Drosophila melanogaster, UniProt Q9W1K4 512-819, K659E;K754E;R788E).
T5 sequence: T1 sequence with K148E, K243E, E274R, R277E
Kind of data set: fluorescence anisotropy; binding not detected; FA: 20 mM HEPES-NaOH pH 7.5, 100 mM NaCl, 10% glycerol, 20 C, 10 nM FAM-RNA; competition: 150 nM Egl512-819 + 10 nM FAM-K10 TLS, same buffer.

Substitutions are numbered along the chain they refer to.

As to CUUGAUUGUAUUUUUAAAUUAAUUCUUAAAAACUACAAAUUAAG (structured_RNA) [K10 TLS (FAM)], the Kd (usually the free concentration of one partner at which half of the binding sites on the other are occupied at equilibrium, for simple one-to-one binding) in data set [1] was 210 ± 5 nM; in data set [2], 433 ± 42 nM; in data set [3] it was 185 ± 9 nM; in data set [4] it was 144 ± 6 nM. Further, the binding result in data set [5] was “no binding”.
